In the supplement of paper PMC9170038:

Test system: MS2 coat protein
Test: apparent KD of MS2 coat protein; designed switch direction (-1 OFF switch, 1 ON switch): -1; higher = weaker reporter binding
In short: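 The apparent KD reported per design is the median over clusters of curve fits to normalised cluster fluorescence. The RNA switches were transcribed on Illumina chips by stalled E. coli RNA polymerase. SNAP-549-labelled MS2 coat protein was titrated from 0.7 or 1.5 nM, doubling up to 3 µM, in Tris-HCl pH 7.5 buffer containing KCl, MgCl2, BSA, DTT, tRNA and Tween-20, with no input, 200 uM small-molecule ligand, or an oligonucleotide input.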

[1] = Eterna round: R95, input ligand: FMN 200 uM
[2] = Eterna round: R95, input ligand: microRNA oligo, concentration not stated
[3] = Eterna round: R95, input ligand: none
[4] = input ligand: microRNA oligo, concentration not stated

“UUUAAUUUUUUUUUUUUACAAGCUUUUUGCUCGUCUUAUACAUGAGGAUCACCCAUGUGGGUGGAAAAUAAAUUAUC [JMF 92] (puzzle: Sensor v3, turn-off variant 2)” was tested, and the “apparent KD of MS2 coat protein” value [1] was 33.9 nM, the “apparent KD of MS2 coat protein” value [2] was 45 nM and the “apparent KD of MS2 coat protein” value [3] was 88.4 nM.

For “UGCCGGGCGUGAUCGGAUGACAUGAGGAUCACCCAUGUGCCAGCACAUAAUACCGCUCGCGGUUUUUUGCUCGUCAU [Eternabot (Original) Solution 12] (Eterna round: R97, puzzle: Sensor, turn-off variant 1)”, the “apparent KD of MS2 coat protein” value (input ligand: FMN 200 uM) was 221 nM and the “apparent KD of MS2 coat protein” value (input ligand: none) was 250 nM.

For “GUGAGGUAAGGAUAUAGUAGUGAAGGUAAAAUAUGAGAAUGCUAGAAGGUACAUGAGGAUCACCCAUGUUAGGG [JR_Exclu4_Sub088] (puzzle: Exclusion 4)”, the “apparent KD of MS2 coat protein” value [2] was 146 nM.

“GAACAAGCGUGAGGCUCGUCUUAAAGAGCCUCAUGAAAAACAUGAGGAUCACCCAUGUAAAAUGAUCGAAAGAUCAA [Mat - Sensor v2 - var 2 - Mod - D131] (Eterna round: R96, puzzle: Sensor v2, turn-off variant 2)” was tested, and the “apparent KD of MS2 coat protein” value (input ligand: FMN 200 uM) was 14.9 nM, the “apparent KD of MS2 coat protein” value [4] was 12.7 nM and the “apparent KD of MS2 coat protein” value (input ligand: none) was 16.9 nM.

With “CCAGCGUAUGUGAGGAUAUGCUGGUCCUUGGAUCAGCAGAAGGCACAUGAGGAUCACCCAUGUGGAAAAGUUGG [Mod of JL 23 - Jieux - Brourd's mod of Exclusion 4] (Eterna round: R97, puzzle: Brourd's mod of Exclusion 4)” the “apparent KD of MS2 coat protein” value (input ligand: FMN 200 uM) was 164 nM and the “apparent KD of MS2 coat protein” value (input ligand: none) was 27.3 nM.

“UUAAUGUGAGGAUAUCAGGUGUGCUAGCGUACUGGUACAUCUGAGAAGGCACAUGAGGAUCACCCAUGUUCCAG [JL-ex4-3.29 Brourd mod] (puzzle: Exclusion 4)” was tested, and the “apparent KD of MS2 coat protein” value [2] was 30.5 nM.

With “AAGUAGUGUGUGAGGAUAUUGGUGGAAUGACAUAUUAAGAAGGCACAUGAGGAUCACCCAUGUGGGUUGACACG [Brourd's EX4 #19] (Eterna round: R97, puzzle: Brourd's mod of Exclusion 4)” the “apparent KD of MS2 coat protein” value (input ligand: FMN 200 uM) was 269 nM and the “apparent KD of MS2 coat protein” value (input ligand: none) was 98.4 nM.

For “UCCUUGUUAGGAUAUUGCCUGUGGGCUAAUCUGAAUACAGGUAAGAAGGGACAUGAGGAUCACCCAUGUGACAA [Eternabot (Original) Solution 32] (Eterna round: R97, puzzle: Exclusion 4)”, the “apparent KD of MS2 coat protein” value (input ligand: FMN 200 uM) was 39.3 nM and the “apparent KD of MS2 coat protein” value (input ligand: none) was 28.8 nM.

“CUGUACAUAGGAUAUAGUUGUUUUUACAUGAGGAUCACCCAUGUUACUCCUCUCUCUCUUCUAGAAGGAUGUUUUU [JR_E5_Sub007] (Eterna round: R96, puzzle: Exclusion 5)” was tested, and the “apparent KD of MS2 coat protein” value (input ligand: FMN 200 uM) was 70.7 nM, the “apparent KD of MS2 coat protein” value [4] was 50.7 nM and the “apparent KD of MS2 coat protein” value (input ligand: none) was 67 nM.

For “CUUUUUUGAGGAUAUUAGUAGUAAAUAAAUAAAAUUACUACUGAGAAGGCACAUGAGGAUCACCCAUGUUCCUC [salish99_ex4_r3_046] (puzzle: Exclusion 4)”, the “apparent KD of MS2 coat protein” value [2] was 17.6 nM.

In the case of “GAGUGAUAAGGAUAUACAUGAGGAUCACCCAUGUGCUUCAGCUAGGAGACUAGCAUUGGUAGAAGGUAUUACUC [Mod of lroppy 11 - Jieux - Exclusion 3] (Eterna round: R97, puzzle: Exclusion 3)”, the “apparent KD of MS2 coat protein” value (input ligand: FMN 200 uM) is reported as 54.3 nM and the “apparent KD of MS2 coat protein” value (input ligand: none) is reported as 18.7 nM.

“UACACUGCAUGAGGAUCAAACAUGAGGAUCACCCAUGUAUAGCAAGCUUUUUGCGCGUCUUAUAAUUAUGUAGUGUA [Electric Eye 19 - Jieux - Sensor, turn-off variant 1] (Eterna round: R97, puzzle: Sensor, turn-off variant 1)” was tested, and the “apparent KD of MS2 coat protein” value (input ligand: FMN 200 uM) was 15.8 nM and the “apparent KD of MS2 coat protein” value (input ligand: none) was 15.4 nM.

For “UUGAAGUCAUCAGGAUAUAGUAUUAAAGACAUUUAUAUUUUCAAACAUGAGGAUCACCCAUGUCGCUAGAAGGGAUUAUAGAUU [JR_ExcNG2_Sub080] (Eterna round: R96, puzzle: Exclusion NG 2)”, the “apparent KD of MS2 coat protein” value [4] was 36.6 nM.

With “CAUGGCACGUAGGAUAUCUCGCAGCCCGGCUGCAGAGAAGGACGUACAUGAGGAUCACCCAUGUAUGAUCCAAA [Laquus] (puzzle: Exclusion 6)” the “apparent KD of MS2 coat protein” value [2] was 24.1 nM.

In the case of “CCGCAGUGAGGAUAUUGUCAUAGACGGUGUGAAUCACGGGACAAGAAGGUACAUGAGGAUCACCCAUGUGGGUG [Eternabot (L1) Solution 1] (Eterna round: R97, puzzle: Exclusion 4)”, the “apparent KD of MS2 coat protein” value (input ligand: FMN 200 uM) is reported as 54.3 nM and the “apparent KD of MS2 coat protein” value (input ligand: none) is reported as 1560 nM.

For “AUAAAUCAUGUAGGAUAUGCGUGGAGAAGCUAUGCAGAAGGACAUGAGGAUCACCCAUGUGCUUCCGUCUGCGUACAGACGGAA [Mat - Exclusion NG 1 - Mod of JL - D36] (Eterna round: R96, puzzle: Exclusion NG 1)”, the “apparent KD of MS2 coat protein” value (input ligand: FMN 200 uM) was 38 nM, the “apparent KD of MS2 coat protein” value [4] was 89.2 nM and the “apparent KD of MS2 coat protein” value (input ligand: none) was 131 nM.

In the case of “GAGAAACAUGAGGAUCACCCAUGUGAGGAUAUGCGUACGUUGUCCGUAGGCGACGUGCGCAGAAGGCGCAAAGG [Mat - Mod of JL D86] (puzzle: Exclusion 1)”, the “apparent KD of MS2 coat protein” value [2] is reported as 54.2 nM.

With “CUAGUCCGAGGAUAUAUUAUGUGAUACAUGAGGAUCACCCAUGUUAUAUGAUGGAUAUUAAUAGAAGGCGGACUAG [Mat - Exclusion 5 - JL mod - D74] (puzzle: Exclusion 5)” the “apparent KD of MS2 coat protein” value [1] was 58 nM, the “apparent KD of MS2 coat protein” value [2] was 68.3 nM and the “apparent KD of MS2 coat protein” value [3] was 88 nM.

“CUUUCGUGAGGAUAUGUGGCUAAAAUCGUGAGAUCGAGGCUACAGAAGGCACAUGAGGAUCACCCAUGUUCCUC [salish99_ex4_r4_212] (Eterna round: R97, puzzle: Exclusion 4)” was tested, and the “apparent KD of MS2 coat protein” value (input ligand: FMN 200 uM) was 379 nM and the “apparent KD of MS2 coat protein” value (input ligand: none) was 38.3 nM.
